Laboratory results from patent US10117916B2, “Peptides and combination of peptides for use in immunotherapy against CLL and other cancers” (immatics biotechnologies GmbH, priority 2015, dated 2018).

Molecular target: HLA-A*02:01 (Homo sapiens, UniProt P04439, D140Y/D185E/D98H/E176V/E277Q/G131W/G231S/I119V/I121R/I166T/I218V/L300P/L318F/N151K/N90K/P208A/P217A/Q86G/Q94H/R138H/R169H/T345S)
Experiment: MHC binding assay: UV-ligand exchange with β2m ELISA (peptide exchange yield)
Settings: MHC class I binding score; binding to HLA-A*02:01 ranged by peptide exchange yield (UV-ligand exchange, β2m ELISA)
Source text: Candidate peptides for T cell based therapies according to the present invention were further tested for their MHC binding capacity (affinity). The individual peptide-MHC complexes were produced by UV-ligand exchange, where a UV-sensitive peptide is cleaved upon UV-irradiation, and exchanged with the peptide of interest as analyzed. Only peptide candidates that can effectively bind and stabilize the peptide-receptive MHC molecules prevent dissociation of the MHC complexes. To determine the yield of the exchange reaction, an ELISA was performed based on the detection of the light chain (β2m) of stabilized MHC complexes. The assay was performed as generally described in Rodenko et al. (Rodenko et al., 2006).
96 well MAXISorp plates (NUNC) were coated over night with 2 ug/ml streptavidin in PBS at room temperature, washed 4× and blocked for 1 h at 37° C. in 2% BSA containing blocking buffer. Refolded HLA-A*02:01/MLA-001 monomers served as standards, covering the range of 15-500 ng/ml. Peptide-MHC monomers of the UV-exchange reaction were diluted 100 fold in blocking buffer. Samples were incubated for 1 h at 37° C., washed four times, incubated with 2 ug/ml HRP conjugated anti-β2m for 1 h at 37° C., washed again and detected with TMB solution that is stopped with […]. Absorption was measured at 450 nm. Candidate peptides that show a high exchange yield (preferably higher than 50%, most preferred higher than 75%) are generally preferred for a generation and production of antibodies or fragments thereof, and/or T cell receptors or fragments thereof, as they show sufficient avidity to the MHC molecules and prevent dissociation of the MHC complexes.

| Substance | Peptide Exchange |
| --- | --- |
| 66 (SLAGGLDDMKA; listed as Homo sapiens) [compound 66] | ″+++″ (≥50 = +++) |
| 67 (GLDDVTVEV; listed as Homo sapiens) [compound 67] | ″++″ (≥20% = ++) |
| 68 (GLDQQFAGLDL; listed as Homo sapiens) [compound 68] | ″+″ (≥10% = +) |
| 70 (FVPDTPVGV; listed as Homo sapiens) [compound 70] | ″+++″ (≥50 = +++) |
| 71 (GLKHDIARV; listed as Homo sapiens) [compound 71] | ″+++″ (≥50 = +++) |
| 72 (GLLDAGKMYV; listed as Homo sapiens) [compound 72] | ″+++″ (≥50 = +++) |
| 73 (GLLEVISALQL; listed as Homo sapiens) [compound 73] | ″+++″ (≥50 = +++) |
| 74 (GLLRASFLL; listed as Homo sapiens) [compound 74] | ″++″ (≥20% = ++) |
| 75 (GLSIFAQDLRL; listed as Homo sapiens) [compound 75] | ″++″ (≥20% = ++) |
| 76 (GLLRIIPYL; listed as Homo sapiens) [compound 76] | ″+++″ (≥50 = +++) |
| 78 (GLPSFLTEV; listed as Homo sapiens) [compound 78] | ″+++″ (≥50 = +++) |
| 79 (GLQAKIQEA; listed as Homo sapiens) [compound 79] | ″+++″ (≥50 = +++) |
| 80 (VLIEDELEEL; listed as Homo sapiens) [compound 80] | ″++″ (≥20% = ++) |
| 82 (GLQSGVDIGV; listed as Homo sapiens) [compound 82] | ″+++″ (≥50 = +++) |
| 83 (GQGEVLVYV; listed as Homo sapiens) [compound 83] | ″+++″ (≥50 = +++) |
| 84 (GVMDVNTAL; listed as Homo sapiens) [compound 84] | ″++″ (≥20% = ++) |
| 85 (HLMLHTAAL; listed as Homo sapiens) [compound 85] | ″++++″ (≥75% = ++++) |
| 87 (HQIEAVDGEEL; listed as Homo sapiens) [compound 87] | ″++″ (≥20% = ++) |
| 88 (ILDEIGADVQA; listed as Homo sapiens) [compound 88] | ″+++″ (≥50 = +++) |
| 89 (ILDFGTFQL; listed as Homo sapiens) [compound 89] | ″+++″ (≥50 = +++) |
| 90 (VIADLGLIRV; listed as Homo sapiens) [compound 90] | ″+++″ (≥50 = +++) |
| 91 (ILDLNTYNV; listed as Homo sapiens) [compound 91] | ″+++″ (≥50 = +++) |
| 92 (ILEPLNPLL; listed as Homo sapiens) [compound 92] | ″+++″ (≥50 = +++) |
| 93 (ILFNTQINI; listed as Homo sapiens) [compound 93] | ″+++″ (≥50 = +++) |
| 94 (ILFPLRFTL; listed as Homo sapiens) [compound 94] | ″+++″ (≥50 = +++) |
| 95 (ILGYMAHEHKV; listed as Homo sapiens) [compound 95] | ″++″ (≥20% = ++) |
| 97 (LLFATQITL; listed as Homo sapiens) [compound 97] | ″++″ (≥20% = ++) |
| 98 (SLIKYFLFV; listed as Homo sapiens) [compound 98] | ″+″ (≥10% = +) |
| 99 (ILIFHSVAL; listed as Homo sapiens) [compound 99] | ″+++″ (≥50 = +++) |
| 103 (KLGGTPAPA; listed as Homo sapiens) [compound 103] | ″++″ (≥20% = ++) |
